From US10280218B2, “Antibodies binding to BMP4, and uses thereof” (ACADEMISCH MEDISCH CENTRUM, priority 2014, dated 2019)

T1: BMP2 (human)
T1 chain: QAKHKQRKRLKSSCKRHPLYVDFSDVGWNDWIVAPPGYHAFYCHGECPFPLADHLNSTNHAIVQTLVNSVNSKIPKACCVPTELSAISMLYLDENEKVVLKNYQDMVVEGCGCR

T2: BMP5 (Homo sapiens, UniProt P22003)
T2 sequence (P22003 317-454): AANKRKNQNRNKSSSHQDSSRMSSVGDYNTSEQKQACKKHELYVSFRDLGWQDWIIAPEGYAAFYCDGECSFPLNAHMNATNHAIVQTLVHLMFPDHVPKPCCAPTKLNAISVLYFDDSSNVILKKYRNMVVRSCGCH

T3: BMP4 (Homo sapiens, UniProt P12644)
T3 sequence (P12644 293-408): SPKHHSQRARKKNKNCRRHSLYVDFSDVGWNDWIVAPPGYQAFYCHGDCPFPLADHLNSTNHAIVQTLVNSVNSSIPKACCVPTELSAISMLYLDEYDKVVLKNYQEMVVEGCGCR

B1: hNoggin (protein)
chain: QHYLHIRPAPSDNLPLVDLIEHPDPIFDPKEKDLNETLLRSLLGGHYDPGFMATSPPEDRPGGGGGAAGGAEDLAELDQLLRQRPSGAMPSEIKGLEFSEGLAQGKKQRLSKKLRRKLQMWLWSQTFCPVLYAWNDLGSRFWPRYVKVGSCFSKRSCSVPEGMVCKPSKSVHLTVLRWRCQRRGGQRCGWIPIQYPIISECKCSC
B2: C8E7: E7 linked to C8, hetero-dimer VHH bihead (protein)
chain: EVQLVESGGGLVQAGGSLRLSCAASGRTFRINDMGWYRQAPGKSRDMVARITSGGNTNYADSVKGRFTISRDNAKNTVYLQMNSLKPEDTAVYYCNADGLRFDSTRYRPFDSWGQGTQVTVSSGGGGSGGGGSEVQLVESGGGLVQAGGSLRLSCAASGSIRGFVAMAWYRQAPGKQREWVATVTNGGTLYGDSVKGRFTGSRDNAKNTVYLQMNSLKPEDTAVYYCALRQIGASGYDYWGQGTQVTVSS

Tests used:
BMP2 = target: T1, BMP2; assay: SPR
BMP5 = target: T2, BMP5; assay: BMP activity luciferase reporter assay (BRE-luciferase, ID1 promoter) in C2C12 cells; type: cell-based, mouse; set-up: purchased R&D Systems 615-BMC-020; conditions: 200 ng/ml hBMP5, 16 h; VHH, Noggin, Gremlin 500 ng/ml; LDN 0.5 μM; DMH1 0.2 μM
Method: One of the most studied BMP target genes is the Inhibitor of Differentiation 1 (ID1). This is an immediate early gene that is activated by binding of the phosphorylated SMADs to its promoter region (López-Rovira et al., 2002). Thus, we employed the BMP-responsive C2C12 cells, which are stably transfected with the BRE-luciferase vector containing the BMP-Responsive-Element (the mouse ID1 promoter) cloned into the pGL3 luciferase vector (Zilberberg 2007). […] C2C12 cells were treated with the different BMPs with or without our VHHs or human Noggin at a concentration of 5 μg/ml. Luciferase activity was measured after 16 hours incubation. Most of the transcriptional data is in concordance with the results obtained with the phosphorylation of SMAD1/5/8.
C2C12 cells were plated in 96-well plates at 5×10^3 cells/well and cells were allowed to attach overnight. 100 μl of DMEM with 0.1% BSA were added in each well. VHH antibodies and human Fc-Noggin at the indicated concentrations were added at the same time. Wells with unstimulated cells were added as controls. […] Luciferase activity was measured by adding 100 μl of luciferase substrate solution from the Bright-Glo™ Luciferase Assay System (Promega Benelux, Leiden, The Netherlands). After 3 minutes of incubation, luciferase activity was measured with Synergy HT Multi-Mode Microplate Reader (Biotek, Winooski, Vt., United States). […]

[1] = tested on: patient-derived SMAD4 deficient tumors; conditions: FIG. 6 of Lombardo et al.; cited from earlier work
BMP4 = target: T3, BMP4; assay: Phosphorylation of SMAD1/5/8 in EPC2-hTERT cells (western blot); type: cell-based; set-up: purchased R&D Systems; conditions: 100 ng/ml BMP4, 4 hours; indicated concentrations
Method: EPC2-hTERT cells were stimulated with mouse BMP4 and pSMAD activation detected by Western Blotting.
To detect phosphorylation of SMAD1/5/8 in vitro, EPC2-hTERTs were cultured in 24-well plates and activated with 100 ng/ml of BMP2, BMP4, BMP5, BMP6 or BMP7 (R&D Systems) for 4 hours with or without VHH at the indicated concentrations. After activation, each well was washed twice with ice-cold PBS and lysed with 100 μl M-PER lysis buffer (Sigma-Aldrich, MO, United States) containing Halt Protease and Phosphatase Inhibitor Cocktail (Thermo Scientific, Landsmeer, The Netherlands). Cell debris were pelleted and supernatant was collected. 15 μg of protein was then separated by 10% SDS-PAGE and transferred onto a PVDF membrane (Millipore, Amsterdam, The Netherlands). The blots were then blocked with 5% milk in Tris-buffered saline supplemented with 0.1% Tween-20 (TBST) for 1 hour at room temperature and washed in TBST before overnight incubation at 4° C. with antiphospho-SMAD1/5/8 (Cell Signalling), anti-βactin (Santa Cruz) or anti-GAPDH (Millipore) in 5% Bovine Serum Albumin (BSA). […] After a final wash with TBST, blots were incubated for 5 minutes in LumiGlow (BIOKE, Leiden, The Netherlands) and then chemiluminescence was detected using a Fuji LAS4000 illuminator (Fujifilm Medical Systems, Stamford, Conn.). Protein was quantitated with Image).

| Molecule | Kd (BMP2) | inhibition of BMP5 signals, comparison of inhibitors (BMP5) | growth of SMAD4 deficient tumors after treatment [1] | inhibition of BMP4 signaling (pSMAD1/5/8), dimer compared to monomer (BMP4) |
| --- | --- | --- | --- | --- |
| B1 | 961 pM | greatly inhibit | generated tumors that grew faster instead of slower |  |
| B2 |  |  |  | better at inhibiting both BMP2 and BMP4 as compared to the E7 monomer |
